Assay [1] concerns the target T1, human TIGIT on Jurkat cells (TIGIT/NFAT reporter Jurkat cells, BPS Bioscience #60538); Promega TIGIT Effector … (human, UniProt Q495A1 22-244).
T1 construct: whole, on cells; Same protein on two bought Jurkat lines (flow cytometry: BPS; bioassay: Promega); also called hu TIGIT cells; cells expressing human TIGIT
T1 sequence (looked up): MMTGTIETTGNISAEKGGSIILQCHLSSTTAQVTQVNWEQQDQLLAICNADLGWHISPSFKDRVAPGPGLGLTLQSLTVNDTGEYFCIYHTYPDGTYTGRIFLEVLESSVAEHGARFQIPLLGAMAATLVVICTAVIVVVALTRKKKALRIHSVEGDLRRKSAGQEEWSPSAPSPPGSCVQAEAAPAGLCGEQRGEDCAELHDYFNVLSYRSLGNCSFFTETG
Description: flow cytometry, TIGIT/NFAT Jurkat cells, 10 ug/ml. For orientation: Flow cytometry measures light scatter and fluorescence of single cells or particles in a stream.

Assay [2] addresses T2, His-tagged cynomolgus monkey TIGIT (Acro Biosystems #TIT-05223) (cynomolgus monkey, UniProt A0A7N9I9V4 89-209).
T2 construct: Bought protein; also called cyno TIGIT; cynomolgus TIGIT; not shown: His tag
The assay can be described thus: SPR (Carterra LSA), scFv-Fc captured, His-TIGIT analyte. In short, it runs like this: (§1)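 Affinity from His-TIGIT analyte injected in 1:2 serial dilution over antibody captured as scFv-Fc via amine-coupled goat anti-human Fc on an HC30M surface. Supernatants diluted 30-fold in HBSTE; kinetic fitting.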

For assay [3], the target named is T3, his-tagged murine TIGIT (Acro Biosystems #TIT-M52E6) (murine, UniProt P86176 29-148, limits assumed).
T3 construct: Bought protein; also called mouse his-tagged TIGIT; not shown: his tag
T3 sequence (looked up): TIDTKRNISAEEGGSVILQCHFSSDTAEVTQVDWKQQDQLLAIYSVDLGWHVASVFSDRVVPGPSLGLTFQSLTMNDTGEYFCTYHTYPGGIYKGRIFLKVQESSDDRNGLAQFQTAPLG
Described as above. An outline of the steps: as §1

The target in assay [4] is T4, his-tagged human TIGIT (Acro Biosystems #TIT-H52H3) (human, UniProt Q495A1 22-141).
T4 construct: Bought protein; also called His-tagged-TIGIT (human); not shown: his tag
T4 sequence (looked up): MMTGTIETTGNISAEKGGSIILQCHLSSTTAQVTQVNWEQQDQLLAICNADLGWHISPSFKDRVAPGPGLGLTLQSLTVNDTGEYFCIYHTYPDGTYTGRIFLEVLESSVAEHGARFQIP
Described as above. An outline of the steps:
as §1

For assay [5], the target named is T2, His-tagged cynomolgus monkey TIGIT …. The assay can be described thus: SPR (Carterra LSA), scFv-Fc captured, His-TIGIT analyte; repeat. The protocol: (§2) Binding affinities of anti-TIGIT antibodies to human, cyno, and murine TIGIT were measured by Surface Plasmon Resonance (SPR) on a Carterra LSA instrument. Goat anti-human Fc antibody was amine coupled to a HC30M chip. ScFv-Fc supernatants were diluted 30-fold with HBSTE and were captured by the anti-human Fc coupled HC30M chip. A 1:2 dilution series of his-tagged human TIGIT, starting at 400 nM, was injected onto the chip for binding. A dilution series was also carried out for cyno TIGIT and murine TIGIT. Data were analyzed using the Carterra™ Kinetics software.

For assay [6], the target named is T3, his-tagged murine TIGIT (Acro …). The assay is described as above. The protocol:
as §2

The target of assay [7] is T1, human TIGIT on Jurkat cells (TIGIT/NFAT …). Description: cell-based or functional assay.
Assay [8] has as its target T2, His-tagged cynomolgus monkey TIGIT …. The assay can be described thus: ELISA, coated His-TIGIT, 1 ug/ml. Background: ELISA stands for enzyme-linked immunosorbent assay.
The target of assay [9] is T3, his-tagged murine TIGIT (Acro …). The assay can be described thus: ELISA, coated His-TIGIT, 1 ug/ml.
Assay [10] has as its target T4, his-tagged human TIGIT (Acro Biosystems …). Description: ELISA, coated His-TIGIT, 1 ug/ml.
For assay [11], the target named is T2, His-tagged cynomolgus monkey TIGIT …. The assay can be described thus: SPR (Carterra LSA), antibody captured, His-TIGIT analyte; repeat.
For assay [12] the target is unchanged. The assay can be described thus: SPR (Carterra LSA), antibody captured, His-TIGIT analyte.
The target in assay [13] is T4, his-tagged human TIGIT (Acro Biosystems …). The assay is described as above.

T2 sequence (A0A7N9I9V4 entry or part of it): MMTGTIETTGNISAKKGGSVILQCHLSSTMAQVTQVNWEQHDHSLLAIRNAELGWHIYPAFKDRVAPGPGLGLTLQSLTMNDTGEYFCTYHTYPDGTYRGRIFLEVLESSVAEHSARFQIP

B1: 43352p1.H8 (scFv, V domains shown)
VH: DVQLVESGGGVVRPGESLRLSCAASGFNFSTYAMNWVRQAPGEGLEWVSGISGRSSGDTTYYADSVRGWFTVSRDNSKNTLYLQMSSLRAEDTAVYYCARETWIRGYFDYWGLGTLVTVSS
VL: QSVLTQPPSASGTPGQRVTISCSGSRSNLGNNLVYWYQQLPGTAPKLLIYFNNERPSGVPDRFSGSKSGTSASLAISGVQSEDEADYYCATWDDSLNGWVFGGGTKLTVL
For the molecule B1, the MFI in assay [1] was 10300 MFI. Moreover, the equilibrium dissociation constant (Kd) (usually the concentration at which binding is half-saturated) in [2] amounted to 120 nM; in assay [3], 1.14 nM; in [4] it was 0.194 nM; in [5], 114 nM; in assay [6] it was 0.74 nM. Besides, the “max. signal (% of 22G2)” value in [7] is 96 % of 22G2. Also, the “Elisa OD450” value in assay [8] was 0.363 OD450; in assay [9], 1.85 OD450; in assay [10], 1.8 OD450.

B2: benchmark 22G2 (antibody, V domains shown)
VH: QVHLQESGPGLVKPSETLSLTCTVSGGSVSSGIYYWSWIRQPPGKGLEWIGYIYYSGSTNYNPSLKSRVTISVDTSKNQFSLKLSSVTAADTAVYYCARDYYVSGNYYNVDYYFFGVDVWGQGTTVTVSS
VL: EIVLTQSPATLSLSPGERATLSCRASQSVSSYLAWYQQKPGQAPRLLIYDASNRATGIPARFSGSGSGTDFTLTISSLEPEDFAVYYCQQRSNWPPLFTFGPGTKVDIK
As to B2, the values for the equilibrium dissociation constant (Kd) in assay [11], in [12] and in assay [13] were 3.4 nM, 16.1 nM and 0.202 nM, respectively.

B3: 43645p1.F11 (scFv, V domains shown)
VH: EVQLLESGGGLVQPGGSLRLSCAASGFTFSSYWMSWVRQAPGKGLEWVSGIHISDSTYYADSVKGRFTISRDNSKNTLYLQMNSLRAEDTAVYYCAKGHTVLQYGMDVWGQGTTVTVSS
VL: QSGLTQPPSASGTPGQRVTISCSGDISNTRNNYVSWYQQLPGTAPKLLIYRNSQRPSGVPDRFSGSKSATSASLAISGLQSEDEADYYCGTWDNTLNAWVFGGGTKLTVL
On to B3, for which the MFI in [1] came to 10900 MFI. For the same molecule, the dissociation constant (Kd) in assay [2] was 33 nM; in [3], 235 nM; in assay [4], 0.322 nM; in [5] it was 16 nM; in assay [6] it was 91 nM. In addition, the “max. signal (% of 22G2)” value in assay [7] is 100 % of 22G2. Besides, the “Elisa OD450” value in [8] was determined as 1.8 OD450; in assay [9], 1.85 OD450; in assay [10], 2.03 OD450.

B4: 43586p2.D11 (scFv, V domains shown)
VH: EVQLLESGGGLVQPGGSLRLSCAASGFTFDDYVMSWVRQAPGKGLEWVSLINWSGGTTYYADSVKGRFTISRDNSKNTLYLQMNSLRAEDTAVYYCAKHWIVYQYGMDVWGQGTTVTVSS
VL: QSVLTQPSSASGTPGQRVAISCSGTISNIETKYVSWYKYVSWYQQLPGTAPKLLIYNNVQRPSGVPDRFSGSQSGTSASLAISGLQSEDEAHYYCASWEGGLNSWVFGGGTKLTVL
With B4, the MFI in assay [1] worked out at 9530 MFI. In addition, the Kd in assay [2] was determined as 87.4 nM; in assay [3] it was 41.4 nM; in assay [4], 0.558 nM; in [5], 4.4 nM; in assay [6], 0.744 nM. The “max. signal (% of 22G2)” value in [7] is 102 % of 22G2. Also, the entries for the “Elisa OD450” value in [8], in assay [9] and in assay [10] were 1.6 OD450, 1.61 OD450 and 2.01 OD450, respectively.

These data come from patent US20230265187A1 (published 2023).
